Source: patent publication US20250277059A1, “ANTIBODY USED TO TREAT CORONAVIRUS INFECTION” (priority 2022, published 2025)

T1: TMPRSS-11D (human, UniProt O60235)
T1 sequence (single chain, looked up): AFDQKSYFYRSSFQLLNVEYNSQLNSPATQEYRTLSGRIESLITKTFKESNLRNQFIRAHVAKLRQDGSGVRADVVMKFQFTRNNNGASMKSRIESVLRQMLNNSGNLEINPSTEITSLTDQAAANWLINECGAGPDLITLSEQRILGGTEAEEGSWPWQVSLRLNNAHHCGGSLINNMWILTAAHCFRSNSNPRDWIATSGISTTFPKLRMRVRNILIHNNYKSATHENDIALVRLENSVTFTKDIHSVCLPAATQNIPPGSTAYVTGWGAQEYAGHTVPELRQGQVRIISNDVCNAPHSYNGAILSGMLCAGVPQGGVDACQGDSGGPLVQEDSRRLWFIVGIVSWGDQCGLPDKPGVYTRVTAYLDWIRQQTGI

T2: TMPRSS-11E (human, UniProt Q9UL52)
T2 sequence (single chain, looked up): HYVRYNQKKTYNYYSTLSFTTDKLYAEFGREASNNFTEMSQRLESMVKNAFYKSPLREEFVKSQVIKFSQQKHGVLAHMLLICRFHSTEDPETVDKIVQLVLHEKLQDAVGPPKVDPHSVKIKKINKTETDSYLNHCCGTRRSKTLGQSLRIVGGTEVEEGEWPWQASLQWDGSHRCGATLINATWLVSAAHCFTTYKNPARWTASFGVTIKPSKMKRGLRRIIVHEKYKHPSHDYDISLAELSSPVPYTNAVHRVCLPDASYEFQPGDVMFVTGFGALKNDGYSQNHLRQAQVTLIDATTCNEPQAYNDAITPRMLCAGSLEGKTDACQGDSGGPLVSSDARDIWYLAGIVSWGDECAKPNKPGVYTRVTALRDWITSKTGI

T3: TMPRSS-13 (human, UniProt Q9BYE2)
T3 sequence (single chain, looked up): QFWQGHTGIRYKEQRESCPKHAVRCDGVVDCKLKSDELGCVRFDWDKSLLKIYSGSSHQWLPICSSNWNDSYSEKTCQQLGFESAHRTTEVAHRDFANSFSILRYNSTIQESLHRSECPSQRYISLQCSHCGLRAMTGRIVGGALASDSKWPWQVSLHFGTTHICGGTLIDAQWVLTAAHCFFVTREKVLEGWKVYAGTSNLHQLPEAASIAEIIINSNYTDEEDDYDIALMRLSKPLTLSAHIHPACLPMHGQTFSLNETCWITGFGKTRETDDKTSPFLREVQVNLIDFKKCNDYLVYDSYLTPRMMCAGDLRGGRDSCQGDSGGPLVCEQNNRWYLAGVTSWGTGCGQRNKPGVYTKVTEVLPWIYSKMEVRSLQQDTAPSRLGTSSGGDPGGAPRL

B1: 2114_16: mouse anti-human TMPRSS2 monoclonal antibody, IgG2c λ; VH SEQ ID NO: 106, VL SEQ ID NO: 107 (antibody, V domains shown)
VH: EVQLQQSGPELVKPGASVKISCKASGYTFTDYYMNWVKRRHGKSLEWIGNINPNNGGTSYNQKFKGKATLTVDKSSSTAYMELRSLTSEDSVVYYCAREGDLFPFAYWGQGTLVTVSA
VL: QAVVTQESALTTSPGETVTLTCRSSIGTVTTSNFANWVQEKPDHLFTGLIGASNNRAPGVPARFSGSLIGDKAALTITGAQTEDEAIYFCALWFSNHWVFGGGTKLTVL
modifications: mouse IgG2c lambda constant regions; 2114_16 VH; 2114_16 VL
B2: humanized 752-1 IgG4 (S108P) prototype #4 (antibody, V domains shown)
VH: QVQLQQSGTGLARPGASVKLSCKASGYTFTSCGISWVTQRAGQGLEWIGEIYPRGGNTYYNEKFKGKATLTADKSSSSAYMELRGLTAEDSAVYFCARENGNYDPLFAYWGQGTTLTVSS
VL: DIQMTQSPSSLSASVGDRVTITCKASQDINKYIAWYQQKPGKAPKLLIHYTSTLQPGVPSRFSGSGSGTDFTFTISSLQPEDIATYYCLQYYNLWTFGGGTKVEIK
notes: also called humanized #4; hu #4
B3: 752_1 antibody (antibody, V domains shown)
VH: QVQLQQSGAELARPGASVKLSCKASGYTFTSCGISWVKQRTGQGLEWIGEIYPRGGNTYYNEKFKGKATLTADKSSSTAYMELRSLTSEDSAVYFCARENGNYDPLFAYWGQGTLVTVSA
VL: DIQMTQSPSSLSASLGGKVTITCKASQDINKYIAWYQHKPGKGPRLLIHYTSTLQPGIPSRFSGSGSGRDYSFSIYNLEPEDIATYYCLQYYNLWTFGGGTKLEIK
B4: 2020_12 antibody (antibody, V domains shown)
VH: QVQLQQPGAELAKPGASVKLSCKASGYTFTSYWMHWVKQRPGQGLEWIGLIPPNSGSSNYNEKFKSKATLTVDKSSRTAYMQLSSLTSEDSAVYYCARWDYGSSYGYFDVWGTGTTVTVSS
VL: DIVLTQSPASLAVSLGQRATISCRASESVSTSGYSYMHWYQQKPGQPPKLLIYLASNLESGVPVRFSGSGSGTDFTLNIHPVEEEDAATYYCQHSRELPPTFGAGTKLELK
B5: 2228_15 antibody (antibody, V domains shown)
VH: QVQLQQSGPELVKPGTSVKISCKASGYTFTDYYINWVKQRPGQGLEWIGWIFPGSGSSYYNAIFKGKATLTVDTSSNTAHMSLSSLTSDDSAVYFCARGDFGNFGGFFTYWGQGTLVTVSA
VL: DVVVTQSPASLAVSLGQRATISCRASKSVSTSGYSFMHWYQQKPGQPPKLLIYLASNLESGVPARFSGSGSGTDFILNIHPVEEEDAATYYCQHSRELPLTFGAGTKLELK
B6: 1831_15: mouse anti-human TMPRSS2 monoclonal antibody, IgG2b κ; VH SEQ ID NO: 98, VL SEQ ID NO: 99 (antibody, V domains shown)
VH: QVQLQQPGAELVKPGASVKLSCKASGYSFTTYWMHWVRQRPGQGLEWIGIIHPNSGTTNYNEKFKSKASLTVDKSSSTAYMQLSSLTSEDSAVYYCARLLWDYFDYWGQGTTLTVSS
VL: DIVMSQSPSSLAVSAGEKVTMSCKSSQSLLNSRTRKNFLAWYQQKPGQSPKLLIYWASTRESGVPDRFTGSGSGTDFTLTISSVQAEDLAVYYCKQSYNLYTFGGGTKLEIK
modifications: mouse IgG2b kappa constant regions; 1831_15 VH; 1831_15 VL
B7: humanized 2228-15 IgG4 (S108P) prototype #1 (antibody, V domains shown)
VH: QVQLVQSGAEVKKPGASVKVSCKASGYTFTDYYINWVRQAPGQGLEWMGWIFPGSGSSYYNAIFKGRVTMTRDTSISTAYMELSRLRSDDTAVYYCARGDFGNFGGFFTYWGQGTLVTVSS
VL: DVVMTQSPLSLPVTLGQPASISCRASKSVSTSGYSFMHWFQQRPGQSPRRLIYLASNLESGVPDRFSGSGSGTDFTLKISRVEAEDVGVYYCQHSRELPLTFGGGTKVEIK
notes: also called humanized #1; hu #1
B8: humanized 2228-15 IgG4 (S108P) prototype #3 (antibody, V domains shown)
VH: EIQLVQSGAEVKKPGSSVKVSCKASGYTFTDYYINWMRQAPGQGLEWIGWIFPGSGSSYYNAIFKGRATLTVDTSTNTAYMELSSLRSEDTAFYFCARGDFGNFGGFFTYWGQGTLVTVSS
VL: DVVMTQSPLSLPVTLGQPASISCRASKSVSTSGYSFMHWFQQRPGQSPRRLIYLASNLESGVPDRFSGSGSGTDFTLKISRVEAEDVGVYYCQHSRELPLTFGGGTKVEIK
notes: also called humanized #3; hu #3
B9: humanized 2228-15 IgG4 (S108P) prototype #4 (antibody, V domains shown)
VH: EIQLVQSGAEVKKPGSSVKVSCKASGYTFTDYYINWMRQAPGQGLEWIGWIFPGSGSSYYNAIFKGRATLTVDTSTNTAYMELSSLRSEDTAFYFCARGDFGNFGGFFTYWGQGTLVTVSS
VL: DIVMTQSPDSLAVSLGERATINCRASKSVSTSGYSFMHWYQQKPGQPPKLLIYLASNLESGVPDRFSGSGSGTDFTLTIRPLQAEDVAVYYCQHSRELPLTFGQGTKLEIK
notes: as for B2

What was measured:
human TMPRSS2 [1] = target: T4, human TMPRSS2 (Homo sapiens, UniProt O15393); test: Competitive inhibition between anti-TMPRSS2 mAbs (flow cytometry); assay type: binding; conditions: FIG. 3C
Target sequence in this assay (O15393 whole entry): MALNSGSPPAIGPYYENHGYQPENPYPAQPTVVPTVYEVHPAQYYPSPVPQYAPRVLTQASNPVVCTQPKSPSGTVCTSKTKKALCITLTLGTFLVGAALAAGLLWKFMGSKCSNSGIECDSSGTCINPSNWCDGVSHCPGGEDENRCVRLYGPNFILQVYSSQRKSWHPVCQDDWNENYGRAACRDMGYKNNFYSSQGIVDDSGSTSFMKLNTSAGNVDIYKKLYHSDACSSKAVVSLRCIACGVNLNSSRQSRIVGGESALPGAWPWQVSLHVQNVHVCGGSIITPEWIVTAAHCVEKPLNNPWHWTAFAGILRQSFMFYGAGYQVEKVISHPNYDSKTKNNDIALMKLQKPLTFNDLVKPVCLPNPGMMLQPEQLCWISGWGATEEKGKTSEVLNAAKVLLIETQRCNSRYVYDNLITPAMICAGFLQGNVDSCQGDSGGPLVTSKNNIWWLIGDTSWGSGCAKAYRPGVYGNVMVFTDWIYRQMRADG

human TMPRSS2 [2] = target: T4, human TMPRSS2; test: BIACore binding assay of anti-TMPRSS2 antibodies; conditions: Table 1, mouse mAbs, 25° C.
Target sequence in this assay (O15393 106-492 limits assumed): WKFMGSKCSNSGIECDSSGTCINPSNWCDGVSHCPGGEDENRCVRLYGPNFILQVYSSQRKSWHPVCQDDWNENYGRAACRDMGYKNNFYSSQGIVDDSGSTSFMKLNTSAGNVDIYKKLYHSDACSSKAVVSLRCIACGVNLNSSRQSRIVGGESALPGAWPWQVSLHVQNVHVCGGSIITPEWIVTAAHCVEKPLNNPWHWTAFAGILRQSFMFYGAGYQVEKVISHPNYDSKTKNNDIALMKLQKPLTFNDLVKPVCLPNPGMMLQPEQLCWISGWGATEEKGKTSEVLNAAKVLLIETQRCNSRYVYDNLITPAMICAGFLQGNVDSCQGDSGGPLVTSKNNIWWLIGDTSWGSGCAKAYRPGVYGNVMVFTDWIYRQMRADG

[3] = target: T5, Human TMPRSS2 recombinant protein, extracellular region (N-terminal His tag, C-terminal Strep-tag II) (human, UniProt O15393 106-492); test: SPR (BIACore)
T5 construct: also called Human TMPRSS2 recombinant proteins; extracellular region of human TMPRSS2

[4] = target: T6, Human TMPRSS2 expressed on cells (human, UniProt O15393 1-492)
T6 construct: also called TMPRSS2 expressing cells; Daudi-TMPRSS2 transfectant

TMPRSS-11D = target: T1, TMPRSS-11D; test: ELISA, Strep-tagged protein on streptavidin plate
TMPRSS-11E = target: T2, TMPRSS-11E; test: ELISA, Strep-tagged protein on streptavidin plate
TMPRSS-11F = TMPRSS-11F (human, UniProt Q6ZWK6); test: ELISA, Strep-tagged protein on streptavidin plate
TMPRSS-13 = target: T3, TMPRSS-13; test: ELISA, Strep-tagged protein on streptavidin plate
[5] = target: T6, Human TMPRSS2 expressed on cells; test: cell-based or functional assay
[6] = target: T6, Human TMPRSS2 expressed on cells; test: cell-based or functional assay; remark: listed apart in the source
[7] = target: Cynomolgus monkey TMPRSS2 expressed on cells (cynomolgus monkey); test: flow cytometry, Daudi transfectant
[8] = target: T5, Human TMPRSS2 recombinant protein, …; test: SPR (BIAcore); rounded repeat of Table 1
[9] = target: T6, Human TMPRSS2 expressed on cells; test: flow cytometry, Daudi transfectant
[10] = target: Mouse TMPRSS2 expressed on cells (mouse, UniProt Q9JIQ8 1-490); test: flow cytometry, Daudi transfectant
[11] = target: T5, Human TMPRSS2 recombinant protein, …; test: SPR (BIAcore), captured mAb, soluble human TMPRSS2 extracellular region
[12] = tested on: TMPRSS2 of non-human animal species; assay type: binding; conditions: Table 3; species whose TMPRSS2 is bound

T6 sequence (O15393 whole entry): as the sequence (O15393 whole entry) above
Sequence of TMPRSS-11F (Q6ZWK6 54-438 limits assumed): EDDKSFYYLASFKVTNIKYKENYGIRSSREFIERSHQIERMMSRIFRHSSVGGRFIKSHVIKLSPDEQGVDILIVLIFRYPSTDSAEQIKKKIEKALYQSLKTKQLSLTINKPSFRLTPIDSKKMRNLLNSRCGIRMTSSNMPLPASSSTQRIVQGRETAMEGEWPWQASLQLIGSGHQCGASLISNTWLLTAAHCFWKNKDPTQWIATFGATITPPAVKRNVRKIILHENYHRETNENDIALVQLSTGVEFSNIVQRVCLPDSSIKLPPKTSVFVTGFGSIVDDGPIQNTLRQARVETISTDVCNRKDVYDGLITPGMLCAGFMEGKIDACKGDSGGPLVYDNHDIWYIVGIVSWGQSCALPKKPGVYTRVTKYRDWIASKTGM
T5 sequence (O15393 other isoform, or with tags, fused parts or gaps limits assumed): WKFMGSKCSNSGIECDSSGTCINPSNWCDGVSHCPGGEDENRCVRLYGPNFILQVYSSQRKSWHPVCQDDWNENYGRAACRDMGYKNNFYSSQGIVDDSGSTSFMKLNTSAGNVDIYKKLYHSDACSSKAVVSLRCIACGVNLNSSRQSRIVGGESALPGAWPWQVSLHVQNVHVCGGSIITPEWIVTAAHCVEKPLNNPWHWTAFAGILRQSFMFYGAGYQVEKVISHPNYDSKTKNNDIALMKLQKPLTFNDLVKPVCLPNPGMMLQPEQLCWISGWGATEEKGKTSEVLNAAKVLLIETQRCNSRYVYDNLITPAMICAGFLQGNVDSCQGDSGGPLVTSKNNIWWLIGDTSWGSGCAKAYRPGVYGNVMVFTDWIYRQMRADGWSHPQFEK
Sequence of Mouse TMPRSS2 expressed on cells (Q9JIQ8 whole entry): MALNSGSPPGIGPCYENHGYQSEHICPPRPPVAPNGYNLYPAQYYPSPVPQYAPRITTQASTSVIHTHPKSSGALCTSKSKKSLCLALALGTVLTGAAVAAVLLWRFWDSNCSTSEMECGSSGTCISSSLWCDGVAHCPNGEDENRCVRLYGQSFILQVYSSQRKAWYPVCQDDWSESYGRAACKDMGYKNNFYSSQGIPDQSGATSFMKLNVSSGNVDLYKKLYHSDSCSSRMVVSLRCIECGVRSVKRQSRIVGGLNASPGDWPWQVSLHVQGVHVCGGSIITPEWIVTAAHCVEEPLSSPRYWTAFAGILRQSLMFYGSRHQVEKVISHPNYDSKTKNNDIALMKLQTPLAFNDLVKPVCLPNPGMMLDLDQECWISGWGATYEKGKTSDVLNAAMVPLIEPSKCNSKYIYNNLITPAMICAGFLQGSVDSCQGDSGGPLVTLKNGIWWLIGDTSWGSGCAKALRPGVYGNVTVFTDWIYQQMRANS

Molecule | Kd [3] | koff [3] | kon [3] | APC median at 3 µg/ml [4] | binding result (TMPRSS-11D) | binding result (TMPRSS-11E) | binding result (TMPRSS-11F) | binding result (TMPRSS-13) | also measured
B1 | – | – | – | – | – | – | – | – | competition with 1831_15 antibody for binding to human TMPRSS2 (human TMPRSS2 [1]): weakly competed; ka (human TMPRSS2 [2]): 570000 M⁻¹ s⁻¹; kd (human TMPRSS2 [2]): 0.000591 s⁻¹
B2 | 2.44 nM | 0.00611 s⁻¹ | 2.5e+06 M⁻¹ s⁻¹ | 1650 | – | – | – | – | –
B3 | – | – | – | – | no binding (tested: 10 µg/mL) | no binding (tested: 10 µg/mL) | no binding (tested: 10 µg/mL) | no binding (tested: 10 µg/mL) | –
B4 | – | – | – | – | no binding (tested: 10 µg/mL) | no binding (tested: 10 µg/mL) | no binding (tested: 10 µg/mL) | no binding (tested: 10 µg/mL) | Activity: Calu-3 Inhibiton [5]: 66; IC90, First run; live SARS-CoV-2 infection of Calu-3 cells [6]: 0.23 µg/mL; IC90, Second run; live SARS-CoV-2 infection of Calu-3 cells [6]: 0.13 µg/mL; Q2 (percent of cells GFP+ and stained) [7]: 0.88; Kd [8]: 2.7 nM; Q2 (percent of cells GFP+ and stained) [9]: 99.9; Q2 (percent of cells GFP+ and stained) [10]: 48.5; Kd [11]: 2.69 nM; koff [11]: 0.00176 s⁻¹; kon [11]: 654000 M⁻¹ s⁻¹
B5 | – | – | – | – | no binding (tested: 10 µg/mL) | no binding (tested: 10 µg/mL) | no binding (tested: 10 µg/mL) | no binding (tested: 10 µg/mL) | Kd [8]: 8.4 nM; Kd [11]: 8.41 nM
B6 | – | – | – | – | – | – | – | – | Cross-reactivity [12]: Cynomolgus monkey; ka (human TMPRSS2 [2]): 563000 M⁻¹ s⁻¹; kd (human TMPRSS2 [2]): 0.000236 s⁻¹
B7 | 12.3 nM | 0.0641 s⁻¹ | 5.22e+06 M⁻¹ s⁻¹ | 579 | – | – | – | – | –
B8 | 0.938 nM | 0.000774 s⁻¹ | 825000 M⁻¹ s⁻¹ | 862 | – | – | – | – | –
B9 | – | 0.0001 s⁻¹ | 1.44e+06 M⁻¹ s⁻¹ | 1990 | – | – | – | – | –
